# In patent US20210221908A1 (LAMKAP BIO BETA, published 2021):
# Positions count from the first letter of the chain named.
# B1: K2AC5 CEAxCD47 bispecific antibody (bispecific antibody, human IgG1, kappa, lambda)
# heavy: not shown
# light 1: not shown
# light 2: QSVLTQPPSVSAAPGQKVTISCSGSSSNIGYGLVSWYQQLPGTAPKLLIYAGNLRPSGIPDRFSGSKSGTSATLGITGLQTGDEADYYCGTWDFNYGVVFGGGTKLTVLGQPKAAPSVTLFPPSSEELQANKATLVCLISDFYPGAVTVAWKADSSPVKAGVETTTPSKQSNNKYAASSYLSLTPEQWKSHRSYSCQVTHEGSTVEKTVAPTECS
# notes: kappa-lambda body, human IgG1, common heavy chain; CD47 arm light chain KA3 (K2), CEA arm light chain 1D9 (AC5)
# B2: K2AC22 CEAxCD47 bispecific antibody (bispecific antibody, human IgG1, kappa, lambda)
# heavy: not shown
# light 1: not shown
# light 2: B1 light 2 with G30A, Y31N, L33I, A51F, G52D, N95S, V98I
# notes: kappa-lambda body, human IgG1, common heavy chain; CEA arm light chain 1G6 (AC22)
# B3: K2AC39 CD47xCEA bispecific antibody (bispecific antibody, human IgG1, kappa, lambda)
# heavy: not shown
# light 1: not shown
# light 2: QSVLTQPPSVSAAPGQKVTISCSGSSSEITASGVSWYQQLPGTAPKLLIYDNNKRPSGIPDRFSGSKSGTSATLGITGLQTGDEADYYCGTWDFPPSRFVFGGGTKLTVLGQPKAAPSVTLFPPSSEELQANKATLVCLISDFYPGAVTVAWKADSSPVKAGVETTTPSKQSNNKYAASSYLSLTPEQWKSHRSYSCQVTHEGSTVEKTVAPTECS
# notes: K2 = KA3 CD47 light chain, AC39 = 1B2 CEA light chain
# B4: K2AC25 CEAxCD47 bispecific antibody (bispecific antibody, human IgG1, kappa, lambda)
# heavy: not shown
# light 1: not shown
# light 2: QSVLTQPPSVSAAPGQKVTISCSGSSSNIGITPVSWYQQLPGTAPKLLIYSNNFRPSGIPDRFSGSKSGTSATLGITGLQTGDEADYYCGTWDRTGHEIRPVFGGGTKLTVLGQPKAAPSVTLFPPSSEELQANKATLVCLISDFYPGAVTVAWKADSSPVKAGVETTTPSKQSNNKYAASSYLSLTPEQWKSHRSYSCQVTHEGSTVEKTVAPTECS
# notes: kappa-lambda body, human IgG1, common heavy chain; CEA arm light chain 2F4 (AC25)
# B5: K2AC26 CEAxCD47 bispecific antibody (bispecific antibody, human IgG1, kappa, lambda)
# heavy: not shown
# light 1: not shown
# light 2: QSALTQPASVSGSPGQSITISCTGTSSDVKYANAVSWYQQHPGKAPKLMIYSNSIRPSGVSNRFSGSKSGNTASLTISGLQAEDEADYYCSSYDPRGNLLIRVFGGGTKLTVLGQPKAAPSVTLFPPSSEELQANKATLVCLISDFYPGAVTVAWKADSSPVKAGVETTTPSKQSNNKYAASSYLSLTPEQWKSHRSYSCQVTHEGSTVEKTVAPTECS
# notes: kappa-lambda body, human IgG1, common heavy chain; CEA arm light chain 2F7 (AC26)
# B6: K2AC29 CEAxCD47 bispecific antibody (bispecific antibody, human IgG1, kappa, lambda)
# heavy: not shown
# light 1: not shown
# light 2: QSALTQPASVSGSPGQSITISCTGTSSDVEFTNGVSWYQQHPGKAPKLMIYGFSSRPSGVSNRFSGSKSGNTASLTISGLQAEDEADYYCSSYDPPWHLLARVFGGGTKLTVLGQPKAAPSVTLFPPSSEELQANKATLVCLISDFYPGAVTVAWKADSSPVKAGVETTTPSKQSNNKYAASSYLSLTPEQWKSHRSYSCQVTHEGSTVEKTVAPTECS
# notes: kappa-lambda body, human IgG1, common heavy chain; CEA arm light chain 2B5 (AC29)
# B7: K2AC27 CEAxCD47 bispecific antibody (bispecific antibody, human IgG1, kappa, lambda)
# heavy: not shown
# light 1: not shown
# light 2: QSVLTQPPSVSGAPGQRVTISCTGSSSNIGYADKVHWYQQLPGTAPKLLIYNNSDRPSGVPDRFSGSKSGTSASLAITGLQAEDEADYYCQSYDGYNMLTAVFGGGTKLTVLGQPKAAPSVTLFPPSSEELQANKATLVCLISDFYPGAVTVAWKADSSPVKAGVETTTPSKQSNNKYAASSYLSLTPEQWKSHRSYSCQVTHEGSTVEKTVAPTECS
# notes: kappa-lambda body, human IgG1, common heavy chain; CEA arm light chain 2C11 (AC27)
# B8: K2AC28 CEAxCD47 bispecific antibody (bispecific antibody, human IgG1, kappa, lambda)
# heavy: not shown
# light 1: not shown
# light 2: NFMLTQPHSVSESPGKTVTISCTRSSGSINDITVHWYQQRPGSSPTTVIYGYNARPSGVPDRFSGSIDSSSNSASLTISGLKTEDEADYYCQSWDGHGSAYVFGGGTKLTVLGQPKAAPSVTLFPPSSEELQANKATLVCLISDFYPGAVTVAWKADSSPVKAGVETTTPSKQSNNKYAASSYLSLTPEQWKSHRSYSCQVTHEGSTVEKTVAPTECS
# notes: kappa-lambda body, human IgG1, common heavy chain; CEA arm light chain C11 (AC28)
# B9: K2AC10 CEAxCD47 bispecific antibody (bispecific antibody, human IgG1, kappa, lambda)
# heavy: not shown
# light 1: not shown
# light 2: QSVLTQPPSVSGAPGQRVTISCTGSSSNIYANSNVHWYQQLPGTAPKLLIYSGSNRPSGVPDRFSGSKSGTSASLAITGLQAEDEADYYCQSYDPAHNLLTAVFGGGTKLTVLGQPKAAPSVTLFPPSSEELQANKATLVCLISDFYPGAVTVAWKADSSPVKAGVETTTPSKQSNNKYAASSYLSLTPEQWKSHRSYSCQVTHEGSTVEKTVAPTECS
# notes: kappa-lambda body, human IgG1, common heavy chain; CEA arm light chain 1D5 (AC10)
# B10: K2AC13 CEAxCD47 bispecific antibody (bispecific antibody, human IgG1, kappa, lambda)
# heavy: not shown
# light 1: not shown
# light 2: QSALTQPASVSGSPGQSITISCTGTSSNVRYAAGVSWYQQHPGKAPKLMIYEVSNRPSGVSNRFSGSKSGNTASLTISGLQAEDEADYYCSSWDFEHGPAAKVFGGGTKLTVLGQPKAAPSVTLFPPSSEELQANKATLVCLISDFYPGAVTVAWKADSSPVKAGVETTTPSKQSNNKYAASSYLSLTPEQWKSHRSYSCQVTHEGSTVEKTVAPTECS
# notes: kappa-lambda body, human IgG1, common heavy chain; CEA arm light chain 2B8 (AC13)
# B11: K2AC18 CEAxCD47 bispecific antibody (bispecific antibody, human IgG1, kappa, lambda)
# heavy: not shown
# light 1: not shown
# light 2: SYVLTQPPSVSVAPGKTARITCGGNGIGDASVHWYQQKPGQAPVLVIYSTTTRPSGIPERFSGSNSGNTATLTISRVEAGDEADYYCQVWDGFGPRHRAVFGGGTKLTVLGQPKAAPSVTLFPPSSEELQANKATLVCLISDFYPGAVTVAWKADSSPVKAGVETTTPSKQSNNKYAASSYLSLTPEQWKSHRSYSCQVTHEGSTVEKTVAPTECS
# notes: kappa-lambda body, human IgG1, common heavy chain; CEA arm light chain 1A2 (AC18)
# Target: T1, commercial shed CEA (BioRad) (human, UniProt P06731 35-685, limits assumed)
# T1 sequence: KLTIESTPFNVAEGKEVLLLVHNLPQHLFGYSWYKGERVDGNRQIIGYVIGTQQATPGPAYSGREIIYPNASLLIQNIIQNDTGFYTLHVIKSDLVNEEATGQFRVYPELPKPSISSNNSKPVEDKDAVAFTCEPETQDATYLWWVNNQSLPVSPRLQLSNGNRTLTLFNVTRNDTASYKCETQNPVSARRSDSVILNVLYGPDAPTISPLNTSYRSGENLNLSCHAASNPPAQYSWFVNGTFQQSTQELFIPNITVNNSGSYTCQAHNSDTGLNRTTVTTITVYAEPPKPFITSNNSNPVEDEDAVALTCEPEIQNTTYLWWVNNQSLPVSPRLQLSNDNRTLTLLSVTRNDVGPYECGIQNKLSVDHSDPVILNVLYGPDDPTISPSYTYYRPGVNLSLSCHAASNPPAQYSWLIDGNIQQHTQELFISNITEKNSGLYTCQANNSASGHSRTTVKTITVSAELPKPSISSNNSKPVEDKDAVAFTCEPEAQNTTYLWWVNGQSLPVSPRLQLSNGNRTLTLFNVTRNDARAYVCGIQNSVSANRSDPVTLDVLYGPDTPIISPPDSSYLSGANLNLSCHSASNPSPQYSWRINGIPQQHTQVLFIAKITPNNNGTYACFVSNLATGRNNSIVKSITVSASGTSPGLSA
# Assay: cell-based or functional assay
row,Binder,shift of EC50 of the phagocytosis index curve of MKN-45 cells by 200 ng/mL shed CEA (FIG. 20B) [fold]
1,B1,< 4
2,B2,< 4

# Target: T2, human CEACAM6 on MKN-45 cells (human, UniProt P40199 35-320)
# T2 construct: whole, on cells
# T2 sequence (looked up): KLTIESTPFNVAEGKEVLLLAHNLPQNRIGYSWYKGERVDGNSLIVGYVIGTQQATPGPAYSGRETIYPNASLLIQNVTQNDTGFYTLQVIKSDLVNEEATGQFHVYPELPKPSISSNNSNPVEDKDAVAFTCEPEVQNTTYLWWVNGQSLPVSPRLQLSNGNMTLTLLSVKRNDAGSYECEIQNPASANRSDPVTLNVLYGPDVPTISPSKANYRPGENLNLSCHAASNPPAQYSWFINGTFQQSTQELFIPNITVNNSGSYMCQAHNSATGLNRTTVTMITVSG
# Assay: legend of FIG. 21A, FACS on MKN-45 cells
# Protocol: (§1) Binding to target cells (MKN-45) expressing CD47, CEACAM5 and CEACAM6 was assessed by FACS.
# (§2) Cells are harvested, counted, checked for viability and resuspended at 3×10⁶ cells/ml in FACS buffer (PBS 2% BSA, 0.1% NaN3). 100 μl of the cell suspension are distributed in V-bottom 96-well plates (3×10⁵ cells/well). The supernatant is removed by centrifugation 3 minutes at 4° C., 1300 rpm. Increasing concentrations of the antibody according to the invention are then added into the wells and incubated for 15 minutes at 4° C. Cells are washed twice with cold FACS buffer and re-incubated for further 15 minutes at 4° C. with the PE (R-phycoerythrin)-conjugated mouse anti-human IgG Fc secondary antibody (SouthernBiotech, pre-diluted 1:100 in FACS buffer). Cells are washed twice with cold FACS buffer and resuspended in 300 μl FACS buffer with 1:15000-diluted SytoxBlue (Life Technologies). Fluorescence is measured using a Cytoflex […]. Binding curves and EC50 values are obtained and calculated using GraphPad Prism? software. In the same manner binding of MAB CEA or MAB CEA1 to MKN-45 cells can be tested.
row,Binder,binding result
1,B3,binds

# Target: T2, human CEACAM6 on MKN-45 cells
# Assay: statement in the legend of FIG. 21A (FACS on MKN-45 cells)
# Protocol: as §1, §2
row,Binder,binding result
1,B2,no binding

# Target: T3, human CEACAM5 on MKN-45 cells (human, UniProt P06731 35-685)
# T3 construct: endogenous CEA of MKN-45 gastric adenocarcinoma cells, which also carry CD47 and CEACAM6; UniProtKB P06731; also called CD66e
# T3 sequence: T1 sequence
# Assay: flow cytometry on MKN45 CEA+ cancer cells (also carry CD47)
# Protocol: as §2
row,Binder,EC50 [nM]
1,B2,16.5
2,B4,13
3,B5,12.7
4,B6,14.5
5,B7,12.5
6,B8,52.5
7,B9,1.15
8,B10,190
9,B11,132

# Target: T3, human CEACAM5 on MKN-45 cells
# Assay: flow cytometry (FACS) on MKN-45 cells, without shed CEA
row,Binder,EC50 (read off the curve) [µg/mL]
1,B1,~0.3

# Target: T3, human CEACAM5 on MKN-45 cells
# Assay: flow cytometry on MKN45 CEA+ cancer cells (also carry CD47); MKN45 CEA+ cancer cells
# Protocol: as §2
row,Binder,EC50 [nM]
1,B1,11.3

# Target: T3, human CEACAM5 on MKN-45 cells
# Assay: flow cytometry (FACS) on MKN-45 cells, which express CD47, CEACAM5 and CEACAM6
row,Binder,EC50 (read off the curve) [µg/mL]
1,B2,~1

# Target: T4, human CD47 on MKN45 cells (human, UniProt Q08722 19-323)
# T4 construct: whole, on cells; also called IAP
# Assay: inhibition of SIRPα-mouseFc binding to CD47 on MKN45 cells, imaging (CX5); column 'SIRPα inhibition potency'
# Description: Experimental set-up for the measurement of the SIRPα inhibition potency data shown for bispecific antibodies of this invention (results see table 2):
# The detection of bound SIRPα cell-based assay monitoring the interaction of soluble SIRPα with human CD47 expressed at the surface of MKN45 is used for the detection of the blocking activity. Dose-response experiments with bispecific antibodies according to the invention allow determination of an IC50 value.
# MKN45 cancer cells, expressing both CD47 and CEACAM5, are stained with CFSE violet to allow the imaging system (CX5) to detect the cells. Briefly, 3,000 stained MKN45 cells per well are seeded in a 384 optical well plate (Costar) and incubated for 50 minutes with increased concentrations of bispecific antibodies of the invention (1.9 pM to 333 nM, in quadruplicates). Then, a fixe concentration of SIRPα—mouseFc premixed with anti-mouse IgG-Fc AF647 coupled antibody (Jackson Immunoresearch diluted 1:2000) is added at 50 ng/mL final. After an incubation of 3H30 plates are acquired with the imaging system (CX5, Thermofisher) and fluorescence signals emitted by the detected bound SIRPα is recorded by the software dedicated to the imaging system. Fluorescence signals are plotted according to the dose range tested and IC50 are calculated by the software (Prism, Graphpad).
row,Binder,IC50 [nM]
1,B1,0.4
2,B2,0.37
3,B4,0.22
4,B5,0.32
5,B6,0.72
6,B7,0.86
7,B8,0.95
8,B9,0.22
9,B10,4
10,B11,7

# Target: T3, human CEACAM5 on MKN-45 cells
# Assay: flow cytometry (FACS) on MKN-45 cells, which express CD47, CEACAM5 and CEACAM6; the legend says K2AC39 binds CEACAM5 and CEACAM6, and the curve does not separate the two
row,Binder,EC50 (read off the curve) [µg/mL]
1,B3,~3
